Holding throughout (test): transesterification rate, HPLC, Michaelis-Menten fit
Holding throughout (assay type): biochemical, Talaromyces wortmannii

Substrate in data set [1]: C=COC(=O)/C=C/c1ccc(O)c(OC)c1
The conditions noted are these: acyl donor, co-substrate 200 mM prenol, detergentless microemulsion n-hexane: t-butanol: 100 mM MOPS-NaOH pH 6.0 (system II, 3.2% buffer), 40 °C, 8 h. The text has this: transesterification rate, HPLC, Michaelis-Menten fit on Fae125

Substrate in data set [2]: C=COC(=O)/C=C/c1ccc(O)c(OC)c1
The conditions noted are these: acyl donor, co-substrate 200 mM prenol, system II microemulsion, MOPS-NaOH pH 6.0, 40 °C, 8 h. The text has this: transesterification rate, HPLC, Michaelis-Menten fit on Fae7262

Substrate in data set [3]: C=COC(=O)/C=C/c1ccc(O)c(OC)c1
The note with it: acyl donor, co-substrate 200 mM prenol, system I microemulsion (5.0% buffer), MOPS-NaOH pH 6.0, 40 °C, 8 h. The text has this:
transesterification rate, HPLC, Michaelis-Menten fit on Fae68

Here are results for three proteins from publication PMC6197793, “Optimized Enzymatic Synthesis of Feruloyl Derivatives Catalyzed by Three Novel Feruloyl Esterases from Talaromyces wortmannii in Detergentless Microemulsions” (Computational and Structural Biotechnology Journal, 2018).

B1: Fae125 (Talaromyces wortmannii) (protein)
chain: QQSLWGQCGGTGWTGPTQCVSGACCQVQNPYYSQCIQGNCSPASSTSSTKTTATSVSTTTSARPSGTSLSSGCGKTLSLHSGTYTTTVSGQQRQYTLTLPQNYSPNKAYQLIFGYHWLSGTMQDVVSGSYYGIQPLAGDNAIFVAPQGLNNGWGNTNGDDITFTDQMLSTLENALCIDQTQIYSMGWSYGGAMSYALACARPNVFRAVAVMSGANLSGCSPGTQPVAYYAQHGVSDSVLPFSLGEGIRDTFVKDNHCTPTNPPAPAAGSGTHIKTEYSGCDSGHPVWWVAFDGPHEPLATDAGTSSSWTPGQIWSFFSLFH
notes: expressed in low-background C1 (Myceliophthora thermophila) strain; CBM1 predicted at residues 4-30; EC 3.1.1.73
For B1, in data set [1], the Michaelis constant (Km) is 21.2 ± 7.4 mM.

B2: Fae7262 (Talaromyces wortmannii) (protein)
chain: ASLTQVNNFGDNPGSLQMYIYVPNTLASKPAVIVAMHPCGGSATEYYGMYDYHSPADQYGYILIYPSATRDYNCFDAYSSSSLTHNGGSDSLSIVNMVKYVISTYGADSSKVYMTGSSSGAIMTNVLAGAYPDVFAAGSAFSGMPYACLYGAGAADPIMSNQTCSQGQIQHTGQQWAAYVHNGYPGYTGRYPRLQMWHGTADNVISYADLGQEISQWTTVMGLSFTGNQTNTPLSGYTKMVYGDGSQFQAYSAAGVGHFVPTDVSVVLDWFGITSGTTTTTTSKTTSATTSTTSSAPSSTGGCTAAHWAQCGGIGYTGCTACVSPYTCQKSNDYYSQCL
notes: expressed in low-background C1 (Myceliophthora thermophila) strain; EC 3.1.1.73
Turning to B2, in data set [2], the Km was found to be 26.2 ± 2.9 mM.

B3: Fae68 (Talaromyces wortmannii) (protein)
chain: LPETHLQARGQSTSASSQSFQAKCEAFSSKINGQKKNAFQNDITLHSVTYIPSGGNISMATIPSVCANNAISTASPVEFCRVSLNVTTSSTSQIYMEAWLPGNYTGRFLSTGNGGLGGCIQYSDMLYATQFGFATVGTNNGHFGDTGKYFLGNTEILEDFAYRALHTGVVIGKELAKLFYTQISSGYNKSYYLGCSTGGRQGWKSLEKFPDDFDGVVAGSPAFNFINLSNWGARFLGITGDNTSDTFVTATQWGNLIHDEIIRQCDALDGAVDGIIEDPDLCHPVFETLICNSSSTASSSCLTGVQANTVNQVFTPLIGEDGKWLYPRMQPGSEVLAAYIYYSGQPFQYSTDWFRYVVYNNSAWDPTTWTLADAAAADRQDPFDISTWDSSLVSGFQKKGGKVLHYHGMEDPIITSDSSKAWYKYLADSTNTSPSELDEFYRFFAISGMGHCSPGSGASYIGQGVGTYVPGSEQHPEDNVLMAMVQWVEEGIAPEFVRGAKVASNGSVEYTRKHCKFPKRNVYVGPGNYTDENAWECV
notes: as for B2
Turning to B3, the Km in data set [3] was found to be 16.3 ± 3.7 mM.
